Data published in US9335325B2, “Immunodominant Mycobacterium tuberculosis peptides from cell wall proteins for early diagnosis and immunization” (priority 2008, dated 2016).

Experiments:
[1] = tested on: anti-PTRP antibodies in sera from TB patients; experiment: Western blot of rPTRP probed with human sera; assay type: binding; conditions: for sera showing reactivity with the ~52 kDa protein: positive/tested
[2] = target: T1, Thrombospondin (human platelet) (Homo sapiens, UniProt P07996); experiment: Western blot binding of rPTRP to ECM protein; conditions: ECM protein 5 μg/ml
T1 construct: Thrombospondin (human platelet) was from Calbiochem, EMD Biosciences Inc; purchased Calbiochem, EMD Biosciences Inc; host or cells: human platelet
T1 sequence (P07996 19-1170): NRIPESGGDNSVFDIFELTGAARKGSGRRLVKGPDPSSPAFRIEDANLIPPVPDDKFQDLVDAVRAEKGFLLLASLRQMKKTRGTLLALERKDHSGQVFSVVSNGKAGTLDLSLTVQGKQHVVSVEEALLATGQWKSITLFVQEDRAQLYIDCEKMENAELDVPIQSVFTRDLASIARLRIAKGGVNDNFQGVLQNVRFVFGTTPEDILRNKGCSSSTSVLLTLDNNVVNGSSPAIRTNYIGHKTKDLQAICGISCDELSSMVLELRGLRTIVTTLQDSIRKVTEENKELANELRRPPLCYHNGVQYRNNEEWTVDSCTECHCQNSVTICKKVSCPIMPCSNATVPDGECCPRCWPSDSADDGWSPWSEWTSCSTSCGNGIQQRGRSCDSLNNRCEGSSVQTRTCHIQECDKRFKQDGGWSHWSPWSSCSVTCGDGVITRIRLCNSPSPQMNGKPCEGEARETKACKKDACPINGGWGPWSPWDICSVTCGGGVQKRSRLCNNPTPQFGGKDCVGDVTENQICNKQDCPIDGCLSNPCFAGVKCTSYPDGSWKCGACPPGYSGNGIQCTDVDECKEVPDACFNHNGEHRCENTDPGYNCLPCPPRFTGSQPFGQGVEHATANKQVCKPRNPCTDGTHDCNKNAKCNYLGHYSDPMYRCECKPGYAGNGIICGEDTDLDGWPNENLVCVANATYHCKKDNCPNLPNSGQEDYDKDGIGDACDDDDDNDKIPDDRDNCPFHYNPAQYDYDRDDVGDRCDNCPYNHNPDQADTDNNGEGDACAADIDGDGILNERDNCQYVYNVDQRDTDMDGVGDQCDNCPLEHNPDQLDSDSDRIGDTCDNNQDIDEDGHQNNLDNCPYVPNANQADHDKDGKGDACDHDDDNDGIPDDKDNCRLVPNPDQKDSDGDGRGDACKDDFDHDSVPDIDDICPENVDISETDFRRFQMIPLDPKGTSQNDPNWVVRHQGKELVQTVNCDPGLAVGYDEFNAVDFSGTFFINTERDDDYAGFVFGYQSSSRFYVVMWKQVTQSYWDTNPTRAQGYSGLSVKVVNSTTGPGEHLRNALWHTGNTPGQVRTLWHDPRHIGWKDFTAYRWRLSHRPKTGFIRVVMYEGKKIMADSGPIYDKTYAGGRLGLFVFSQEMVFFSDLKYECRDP
Procedure: The binding of the purified rPTRP to various ECM proteins was determined both by western blotting and ELISA (21). Laminin-1 (human placenta); fibronectin and fibrinogen (human plasma) and elastin (human lung) were obtained from Sigma; human collagen I; collagen III and collagen IV (human placenta), collagen II (human cartilage) and vitronectin (human plasma) from Chemicon International Inc. Temecula, Calif. Thrombospondin (human platelet) was from Calbiochem, EMD Biosciences Inc. and BSA (negative control) was from Promega. Western blots containing rPTRP (0.4 μg/lane) were blocked with 3% BSA in PBS and incubated with the ECM proteins (5 μg/ml) dissolved in PBS. Negative control lanes were incubated with PBS alone. The bound ECM proteins were detected with appropriate anti-ECM antibodies (anti-laminin, anti-fibronectin, anti-thrombospondin and anti-vitronectin at 1:5000; anti-fibrinogen at 1:1000; anti-Col I, Col III, Col IV and anti-elastin at 1:500; anti-Col II at 1:100) followed by appropriate enzyme-conjugated secondary antibodies (anti-rabbit IgG-AP at 1:2000; anti-goat IgG-AP at 1:3000).

[3] = tested on: Laminin-1 (human placenta); experiment: Western blot binding of rPTRP to ECM protein; conditions: ECM protein 5 μg/ml
[4] = tested on: fibronectin (human plasma); experiment: Western blot binding of rPTRP to ECM protein; conditions: ECM protein 5 μg/ml
[5] = tested on: other ECM proteins tested (fibrinogen, elastin, collagen I-IV, vitronectin); experiment: Western blot binding of rPTRP to other ECM proteins; design: species or system human; conditions: data not shown
[6] = tested on: Laminin-1 (human placenta); experiment: ELISA binding of rPTRP to ECM protein; conditions: rPTRP 5-20 μg/ml coated, laminin 0.5 μg/ml
Procedure: (§1) The wells of ELISA plates were coated with various concentration of rPTRP (5-20 μg/ml in PBS) or BSA for 1 h at 37° C. followed by ON at 4° C. Subsequently, the wells were washed with PBS, blocked with 1% BSA in PBS (2 h at 37° C.), washed again with PBST and incubated with different ECM proteins (1 μg/ml; only laminin at 0.5 μg/ml) for 2 h at 37° C. After washing again, the wells were exposed to respective anti-ECM antibodies and the appropriate enzyme-conjugated secondary antibodies to detect the bound ECM proteins.

[7] = target: T1, Thrombospondin (human platelet); experiment: ELISA binding of rPTRP to ECM protein; conditions: rPTRP 5-20 μg/ml coated
Procedure: as §1

[8] = tested on: fibronectin (human plasma); experiment: ELISA binding of rPTRP to ECM protein; conditions: rPTRP 5-20 μg/ml coated
Procedure: as §1

B1: rPTRP: purified recombinant proline-threonine repetitive protein of Mtb (SEQ ID NO:2), GST tag cleaved (protein)
chain: MDVALGVAVTDRVARLALVDSAAPGTVIDQFVLDVAEHPVEVLTETVVGTDRSLAGENHRLVATRLCWPDQAKADELQHALQDSGVHDVAVISEAQAATALVGAAHAGSAVLLVGDETATLSVVGDPDAPPTMVAVAPVAGADATSTVDTLMARLGDQALAPGDVFLVGRSAEHTTVLADQLRAASTMRVQTPDDPTFALARGAAMAAGAATMAHPALVADATTSLPRAEAGQSGSEGEQLAYSQASDYELLPVDEYEEHDEYGAAADRSAPLSRRSLLIGNAVVAFAVIGFASLAVAVAVTIRPTAASKPVEGHQNAQPGKFMPLLPTQQQAPVPPPPPDDPTAGFQGGTIPAVQNVVPRPGTSPGVGGTPASPAPEAPAVPGVVPAPVPIPVPIIIPPFPGWQPGMPTIPTAPPTTPVTTSATTPPTTPPTTPVTTPPTTPPTTPVTTPPTTPPTTPVTTPPTTVAPTTVAPTTVAPTTVAPTTVAPATATPTTVAPQPTQQPTQQPTQQMPTQQQTVAPQTVAPAPQPPSGGRNGSGGGDLFGGF
modifications: GST tag cleaved; possible residual linker residues; Mycobacterium tuberculosis Strain H37Rv
sera showing significant reactivity with the protein ([1]; 6 PPD+, 6 PPD- and 6 HIV+TB- subjects): none
sera showing reactivity with the ~52 kDa protein ([1]; HIV+TB+ patients): 5/6
sera showing reactivity with the ~52 kDa protein ([1]; HIV-TB+ patients): 4/6
binding to thrombospondin [2]: showed binding
binding to laminin [3]: showed binding
binding to fibronectin [4]: showed binding
binding to other ECM proteins [5]: not with any of the other ECM proteins tested
binding to laminin [6]: in a dose-dependent manner
binding to thrombospondin [7]: in a dose-dependent manner
binding to fibronectin [8]: in a dose-dependent manner
